Source: publication PMC3506534, “LL-37 Induces Polymerization and Bundling of Actin and Affects Actin Structure” (PLoS ONE, 2012)
Like-named read-outs stand apart in the source and are kept apart here. Values belong to the compound of their own block, whether it stands above or below them. No end group written: not given here.

Key:
[1] = molecular target: T1, Mg-F-actin (Oryctolagus cuniculus, UniProt P68135); test: Extent of Mg-F-actin bundling by low speed sedimentation; assay type: biochemical, rabbit; settings: for EC50: read-out: concentration for half maximal bundling
T1 construct: CaATP-G-actin was prepared from acetone dried powder derived from the back and leg muscles of rabbit by the method of Spudich and Watt; from tissue; host or cells: rabbit back and leg skeletal muscle (acetone dried powder)
Procedure: (§1) CaATP-G-actin was prepared from acetone dried powder derived from the back and leg muscles of rabbit by the method of Spudich and Watt that even without gel filtration yields highly homogeneous actin in purity greater than 90%. CaATP-G-actin was stored in a buffer containing 5 mM TrisHCl, 0.2 mM CaCl2, 0.2 mM ATP, 0.5 mM β-mercaptoethanol, pH 8.0 (CaATP-G-buffer). MgATP-G-actin was obtained by incubating CaATP-G-actin with 0.2 mM EGTA and 0.1 mM MgCl2 at room temperature for 5 min. MgATP-G-actin was diluted for further treatments in MgATP-G-buffer containing 5 mM MOPS, 0.1 mM MgCl2, 0.2 mM EGTA, 0.2 mM ATP and 0.5 mM DTT, pH 7.4. MgF-actin was polymerized from MgATP-G-actin or CaATP-G-actin by 30 min incubation with 2 mM MgCl2 at room temperature. The concentration of unlabeled rabbit skeletal muscle α-G-actin was determined spectrophotometrically using the extinction coefficients E^1% 290 = 11.5 cm^−1. (The optical density of actin was measured in the presence of 0.5 M NaOH, which shifts the maximum of absorbance from 280 nm to 290 nm). Molecular masses of skeletal actin, yeast cofilin, hen-lysozyme and LL-37 were assumed to be 42 kDa, 15.9 kDa, 14.3 kDa and 4.5 kDa respectively.
After addition of polycations, actin samples were centrifuged at 20,800×g at 4°C for 8 min (in an Eppendorf centrifuge). The supernatants were run using SDS-PAGE and analyzed by densitometry using the TINA 2.07d software.
Figure 3 LL-37, scrambled LL-37 and lysozyme induced bundle formation of Mg-F-actin at low and physiological (100 mM NaCl) ionic strength. (A) Kinetics of LL-37-induced bundle formation: LL-37 (2–8 µM) was added to MgF-actin (2 µM) and bundle formation was followed as an increase in light scattering at 350 nm. Presented data are representative of three independent experiments. (B) Extent of LL-37 and lysozyme induced bundle formation: LL-37 or lysozyme (0.5–9 µM) were added to Mg-F-actin (4 µM). Samples were centrifuged at 20,800×g, for 8 min and the supernatants were analyzed by SDS-PAGE and densitometry. (C) Extent of LL-37 and scrambled LL-37 induced bundle formation: LL-37 or scrambled LL-37 (2–14 µM) were added to MgF-actin (4 µM) and bundle formation was measured as in (B). The presented data are mean and standard deviation of three independent experiments in (B) and (C).

[2] = molecular target: T1, Mg-F-actin; settings: lysozyme; ref [20]; cited from earlier work
Procedure: Bundling kinetics of MgF-actin by LL-37, lysozyme and scrambled LL-37 were studied by increase in light scattering and the extent of bundling was determined using low speed centrifugation. The bundling of MgF-actin by LL-37 is also shown by electron microscopy (Figure S1). Mg-F-actin bundle formation was very fast both with LL-37 (Figure 3A) and lysozyme. The extent of bundling was dependent on the concentration and the nature of the polycation used (Figure 3B). At low ionic strength more than 50% of Mg-F-actin was bundled upon addition of lysozyme (1 µM) to Mg-F-actin (4 µM). A similar ...

[3] = molecular target: T2, MgATP-G-actin (Oryctolagus cuniculus, UniProt P68135); test: Polymerization of MgATP-G-actin at low ionic strength (pyrene fluorescence); assay type: biochemical, rabbit; settings: 2 µM MgATP-G-actin, 10% pyrene labeled; low ionic strength MgATP-G-buffer pH 7.4; 22°C; representative of three independent experiments
T2 construct: CaATP-G-actin was prepared from acetone dried powder derived from the back and leg muscles of rabbit by the method of Spudich and Watt; from tissue; host or cells: rabbit back and leg skeletal muscle (acetone dried powder)
Procedure: as §1, with “MgF-actin was polymerized from MgATP-G-actin or CaATP-G-actin by 30 min incubation with 2 mM MgCl2 at room temperature.” left out, “Molecular masses of skeletal actin, yeast cofilin, hen-lysozyme and LL-37 were assumed to be 42 kDa, 15.9 kDa, 14.3 kDa and 4.5 kDa respectively.” left out
(§2) Labeling of Mg-F-actin at Cys-374 with pyrene maleimide was carried out according to Kouyama and Mihashi with some modifications. […] The concentration of modified actin was determined by the procedure of Bradford using unmodified actin as a standard. The extent of labeling, which was measured by using pyrene extinction coefficient E344 nm = 22000 cm^−1M^−1, was ∼100%. […]

[4] = molecular target: T1, Mg-F-actin; test: NaCl concentration dependent stability of Mg-F-actin bundles (low speed sedimentation); assay type: biochemical, rabbit; settings: 4 µM MgF-actin bundled by 6 µM lysozyme or 10 µM sLL-37; 10 min room temperature
Procedure: as §1, with “MgF-actin was polymerized from MgATP-G-actin or CaATP-G-actin by 30 min incubation with 2 mM MgCl2 at room temperature.” left out, “Molecular masses of skeletal actin, yeast cofilin, hen-lysozyme and LL-37 were assumed to be 42 kDa, 15.9 kDa, 14.3 kDa and 4.5 kDa respectively.” left out
After addition of polycations, actin samples were centrifuged at 20,800×g at 4°C for 8 min (in an Eppendorf centrifuge). The supernatants were run using SDS-PAGE and analyzed by densitometry using the TINA 2.07d software. […]
Figure 4 NaCl concentration dependent bundling of MgF-actin by LL-37, lysozyme and sLL-37. […] The supernatants were analyzed by SDS-PAGE and densitometry. […]

[5] = molecular target: T2, MgATP-G-actin; test: Effect on MgCl2- or NaCl-induced polymerization of MgATP-G-actin (pyrene fluorescence); assay type: biochemical, rabbit; settings: 4 µM LL-37 or lysozyme added simultaneously with salt; 2 µM MgATP-G-actin, 10% pyrene labeled; 22°C
Procedure: as §1, with “MgF-actin was polymerized from MgATP-G-actin or CaATP-G-actin by 30 min incubation with 2 mM MgCl2 at room temperature.” left out, “Molecular masses of skeletal actin, yeast cofilin, hen-lysozyme and LL-37 were assumed to be 42 kDa, 15.9 kDa, 14.3 kDa and 4.5 kDa respectively.” left out
as §2

[6] = tested on: LL-37-induced Mg-F-actin bundles; test: Kinetics of dissociation of LL-37-induced Mg-F-actin bundles (light scattering); assay type: biochemical, rabbit; settings: 200 mM NaCl; 4 µM MgF-actin bundled by 9 µM LL-37; 450 nm
Procedure: Bundling of MgF-actin was followed by increase in light scattering [20]. The time course of light scattering changes was also measured in a PTI spectrofluorometer, with both excitation and emission wavelengths adjusted to 450 nm. All fluorescence and light scattering measurements were carried out at 22°C.
This was followed by the addition of 6 µM DNase1, cofilin, or 200 mM NaCl. Bundling and dissociation was monitored as a change in light scattering.
This was followed by the addition of 6 µM DNase1, 6 µM cofilin, or 200 mM NaCl (thick arrow). Bundling and dissociation were followed as an increase and decrease in light scattering, respectively, measured at 450 nm. Presented data are representative of three independent experiments.

[7] = tested on: LL-37-induced Mg-F-actin bundles; settings: gelsolin; ref [38]; cited from earlier work
From the text: (§3) Bundles of actin filaments are major contributors to the viscosity of sputum in the airways of cystic fibrosis patients. LL-37, which also has been found in the sputum, may contribute to actin bundle formation. […] Here, we studied the effect of cofilin [39] and DNase1 on the stability of LL-37-induced bundles.

[8] = gelsolin; ref [30]; cited from earlier work
From the text: as §3

[9] = gelsolin; ref [6]; cited from earlier work
From the text: LL-37-induced actin polymerization and bundling was chosen as the subject of this study. LL-37 is a 37 amino acid polycationic peptide with 6 net positive charges and is the only known member in human of the cathelicidin family of host defense peptides. In addition to its antimicrobial activity, the host defense activities of LL-37 include chemoattraction, cytokine release, tissue regeneration, inhibition of immunostimulation and apoptosis,[26]. […] There, it increases the F-actin content in the cyt ...

- EC50 ([1]; 4 µM Mg-F-actin, low ionic strength): 1 µM
- EC50 ([1]; 4 µM Mg-F-actin, physiological ionic strength (100 mM NaCl)): 6 µM
- Mg-F-actin bundled ([1]; lysozyme 1 µM, 4 µM Mg-F-actin, low ionic strength, 20,800×g 8 min, SDS-PAGE densitometry, three independent experiments): more than 50%
- concentration giving polymerization of MgATP-G-actin [3]: 1 µM
- NaCl concentration at which bundle stability was decreased [4]: 50 mM
- NaCl concentration in which bundles completely dissociated [4]: 150 mM
- effect on polymerization induced by 2 mM MgCl2 or 100 mM NaCl [5]: no inhibitory effect
Compound: lysozyme: Hen lysozyme, antibacterial polycationic protein, 14.3 kDa, from Sigma
- rate of Mg-F-actin bundle formation [2]: very fast

Compound: [Cl-].[Na+] [NaCl]
- rate and completeness of dissociation [6]: complete and very fast

Compound: Gelsolin
- dissociation of LL-37-induced actin filament bundles [7]: dissociate LL-37-induced actin filament bundles
- effect on sputum viscosity [8]: significantly reduce the viscosity of sputum
- effect on LL-37 antibacterial activity [9]: restore

- MgF-actin bundled ([1]; sLL-37 10 µM, 4 µM MgF-actin, low ionic strength): more than 60%
Compound: GLKLRFEFSKIKGEFLKTPEVRFRDIKLKDNRISVQR [Scrambled LL-37]
